{"source": "IntAct's records for PubMed 23665169", "biological_target": "stk25_human STK25 (UniProt O00506)", "sequence (O00506 whole entry, looked up)": "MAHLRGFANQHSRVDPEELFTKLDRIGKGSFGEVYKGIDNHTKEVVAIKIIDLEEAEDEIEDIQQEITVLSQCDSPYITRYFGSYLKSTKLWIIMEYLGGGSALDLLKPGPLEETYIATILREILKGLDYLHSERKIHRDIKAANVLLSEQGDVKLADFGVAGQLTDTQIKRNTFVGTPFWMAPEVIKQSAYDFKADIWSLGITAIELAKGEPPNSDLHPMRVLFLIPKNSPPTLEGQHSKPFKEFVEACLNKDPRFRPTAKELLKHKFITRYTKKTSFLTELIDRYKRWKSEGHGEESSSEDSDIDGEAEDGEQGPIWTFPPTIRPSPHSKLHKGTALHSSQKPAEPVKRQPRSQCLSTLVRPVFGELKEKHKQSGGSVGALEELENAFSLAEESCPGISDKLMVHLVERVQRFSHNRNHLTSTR", "data": [{"substance": "Programmed cell death protein 10 (Homo sapiens), Q9BUL8 F76D;L80D;M83D", "values": [{"measurement": "effect of a mutation on the interaction", "result": "decreasing interaction strength"}]}]}
